According to patent publication US20250002610A1 (Genmab, published 2025):

Target: T1, human FAPα (Fibroblast activation protein alpha), cell surface expressed (human, UniProt Q12884 1-760)
T1 construct: Endogenous on human lung fibroblasts and CAFs
T1 sequence: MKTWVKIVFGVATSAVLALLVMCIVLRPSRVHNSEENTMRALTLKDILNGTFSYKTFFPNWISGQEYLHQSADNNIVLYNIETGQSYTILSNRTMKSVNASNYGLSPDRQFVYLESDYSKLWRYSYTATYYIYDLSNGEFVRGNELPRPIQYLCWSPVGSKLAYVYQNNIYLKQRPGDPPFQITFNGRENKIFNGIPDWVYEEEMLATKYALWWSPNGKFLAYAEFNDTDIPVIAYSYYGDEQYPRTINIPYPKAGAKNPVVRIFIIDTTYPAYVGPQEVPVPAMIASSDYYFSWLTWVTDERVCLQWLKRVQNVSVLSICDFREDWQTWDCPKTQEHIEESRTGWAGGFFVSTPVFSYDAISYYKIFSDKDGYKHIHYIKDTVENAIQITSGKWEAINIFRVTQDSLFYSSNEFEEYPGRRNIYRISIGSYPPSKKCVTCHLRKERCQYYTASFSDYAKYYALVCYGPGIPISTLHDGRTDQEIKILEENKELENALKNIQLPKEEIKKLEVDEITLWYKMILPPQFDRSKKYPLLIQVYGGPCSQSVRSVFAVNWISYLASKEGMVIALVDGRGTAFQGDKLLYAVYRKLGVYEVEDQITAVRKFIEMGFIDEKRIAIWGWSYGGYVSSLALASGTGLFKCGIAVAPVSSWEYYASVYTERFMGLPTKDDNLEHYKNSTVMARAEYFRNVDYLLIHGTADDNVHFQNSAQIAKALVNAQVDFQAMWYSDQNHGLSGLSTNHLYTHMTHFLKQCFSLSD
Test: flow cytometry, human lung fibroblasts, n = 2
Protocol: Human lung fibroblasts and CAFs (50,000 cells/well) were seeded in 96-Well round bottom plates (Greiner Bio-one, Cat #650101). Antibody dilutions were prepared using fluorescence-activated cell sorting (FACS) buffer, consisting of phosphate buffer saline (PBS, Lonza, Cat #BE17-517Q)+1% Bovine Serum Albumin (BSA, Roche, Cat #10735086001)+0.02% Sodium Azide (Bio-World, Cat #41920044-3). Plates were centrifuged, supernatant was removed, cells were resuspended in 50 μL of human Fc Block (BD, Cat #564220, diluted 1:100 in FACS buffer) and 50 μL of viability stain TO-PRO-3 Iodide (Thermo Fisher, Cat #T3605, diluted 1: 25,000 in FACS buffer), and incubated for 15 min at 4° C. Plates were washed three times with FACS buffer. Plates were centrifuged, supernatant was removed, cells were resuspended in 50 μL of antibody dilutions (concentration range 90-0.0005 μg/mL, three-fold dilution steps using FACS buffer) of BisG1-FAPα-FERL/DR4-FERR, BisG1-FAPα-FERL/b12-FERR, BisG1-b12-FERL/b12-FERR (top six concentrations only for CAFs culture) or IgG1-FAPα-FERL (top four concentrations only for CAFs culture) and incubated for 30 min at 4° C. Cells were washed three times with FACS buffer and resuspended in 50 μL of Fluorescein isothiocyanate (FITC)-labeled polyclonal antibody goat anti-mouse IgG1 (Jackson Immuno Research, Cat #109-096-097, diluted 1:100 in FACS buffer). […] Antibody binding to viable cells (TO-PRO-3 negative) was analyzed by flow cytometry on a FACSCelesta™ (BD biosciences) and data were processed using FlowJo_v10.8.1 (FlowJo LLC). Geomean fluorescence intensity, gMFI, was determined and visualized using GraphPad Prism. Binding curves were analyzed using nonlinear regression analysis. […]
Binding of FAPα-targeting monoclonal antibody clones, IgG1-FAPα-FEAL and IgG1-FAP5-FEAL, and bispecific antibodies carrying a binding arm derived from the two FAPα-binding clones (BisG1-FAPα-FEAL/b12-FEAR and BisG1-FAP5-FEAL/b12-FEAR) to human lung fibroblasts, which endogenously express FAPα, was compared and analyzed by flow cytometry.

B1: BisG1-FAPα-FEAL/b12-FEAR (bispecific antibody, human IgG1, kappa)
heavy 1: EVQLLESGGGLVQPGGSPRLSCEASGFTFSSYALSWVRQAPGKGLEWVSAISGSGGGRYYADSVKGRFTISRDNSKNTLFLQMNSLRAEDTAVYYCAKEGYSSSGTYWDHWGQGTLVTVSSASTKGPSVFPLAPSSKSTSGGTAALGCLVKDYFPEPVTVSWNSGALTSGVHTFPAVLQSSGLYSLSSVVTVPSSSLGTQTYICNVNHKPSNTKVDKRVEPKSCDKTHTCPPCPAPEFEGGPSVFLFPPKPKDTLMISRTPEVTCVVVAVSHEDPEVKFNWYVDGVEVHNAKTKPREEQYNSTYRVVSVLTVLHQDWLNGKEYKCKVSNKALPAPIEKTISKAKGQPREPQVYTLPPSREEMTKNQVSLTCLVKGFYPSDIAVEWESNGQPENNYKTTPPVLDSDGSFLLYSKLTVDKSRWQQGNVFSCSVMHEALHNHYTQKSLSLSPG
light 1: AIQMTQSPSSVSASVGDRVTITCRASQGVSSWLAWYQQKPGRAPKLLIYVASTLQSGVPSRFSGSGSGTDFTLTINSLQPEDFATYYCQQANSFPPTFGQGTRLEMKRTVAAPSVFIFPPSDEQLKSGTASVVCLLNNFYPREAKVQWKVDNALQSGNSQESVTEQDSKDSTYSLSSTLTLSKADYEKHKVYACEVTHQGLSSPVTKSFNRGEC
heavy 2: QVQLVQSGAEVKKPGASVKVSCQASGYRFSNFVIHWVRQAPGQRFEWMGWINPYNGNKEFSAKFQDRVTFTADTSANTAYMELRSLRSADTAVYYCARVGPYSWDDSPQDNYYMDVWGKGTTVIVSSASTKGPSVFPLAPSSKSTSGGTAALGCLVKDYFPEPVTVSWNSGALTSGVHTFPAVLQSSGLYSLSSVVTVPSSSLGTQTYICNVNHKPSNTKVDKRVEPKSCDKTHTCPPCPAPEFEGGPSVFLFPPKPKDTLMISRTPEVTCVVVAVSHEDPEVKFNWYVDGVEVHNAKTKPREEQYNSTYRVVSVLTVLHQDWLNGKEYKCKVSNKALPAPIEKTISKAKGQPREPQVYTLPPSREEMTKNQVSLTCLVKGFYPSDIAVEWESNGQPENNYKTTPPVLDSDGSFFLYSRLTVDKSRWQQGNVFSCSVMHEALHNHYTQKSLSLSPG
light 2: EIVLTQSPGTLSLSPGERATFSCRSSHSIRSRRVAWYQHKPGQAPRLVIHGVSNRASGISDRFSGSGSGTDFTLTITRVEPEDFALYYCQVYGASSYTFGQGTKLERKRTVAAPSVFIFPPSDEQLKSGTASVVCLLNNFYPREAKVQWKVDNALQSGNSQESVTEQDSKDSTYSLSSTLTLSKADYEKHKVYACEVTHQGLSSPVTKSFNRGEC
notes: Fab-arm exchange of IgG1-FAPα-FEAL and IgG1-b12-FEAR
- EC50: 0.044 µg/mL
